This note sets out measurements from publication PMC3917153 (Biochemistry, 2013).

In this experiment the target is T1, GB-yeIF5-B6 (S. cerevisiae, UniProt P38431 241-405).
T1 sequence (looked up): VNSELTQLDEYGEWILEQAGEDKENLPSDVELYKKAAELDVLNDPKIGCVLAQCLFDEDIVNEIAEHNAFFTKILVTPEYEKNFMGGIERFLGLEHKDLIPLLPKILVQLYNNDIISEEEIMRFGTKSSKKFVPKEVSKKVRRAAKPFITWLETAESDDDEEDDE
As to the kind of experiment: pull-down.

B1: GST-yeIF1A ΔC (lacking aa. 108-153) (domain or fragment, S. cerevisiae, UniProt P38912 1-107, looked up)
chain: MGKKNTKGGKKGRRGKNDSDGPKRELIYKEEGQEYAQITKMLGNGRVEASCFDGNKRMAHIRGKLRKKVWMGQGDIILVSLRDFQDDQCDVVHKYNLDEARTLKNQG
As to B1, the binding result is recorded as “binds”.
